# Assay results from patent US20170114140A1 (Amgen, published 2017).
# Target: T1, human IL-17RA on cells (human PBMC; human foreskin fibroblasts) (human, UniProt Q96F46 33-866)
# Assay: cell-based or functional assay
row,"% Inhibition of IL-5 production (TSLP treated human PBMC + IL-2 + IL-25), inhibitor 10 micrograms/mL",Binder
1,86%,"4.16.1 (antibody, IgG2, V domains shown) VH: QVQLVQSGAEVKKPGASVKVSCKASGYTLTSYGISWVRQAPGQGLEWMGWISAYSGNTKYAQKFQGRVTMTTDTSTSTAYMELRSLRSDDTAVYYCARRQLALDYWGQGTLVTVSS VL: EIVMTQSPATLSVSPGERATLSCRASQSISSNLAWYQQKPGQAPRLLIYGASTRATGIPARFSDNGSGTEFTLTISSLQSEDFAVYFCQQYDTWPLTFGGGTKVEIK"
2,100%,"3.381.1 (antibody, IgG2, V domains shown) VH: QVQLVQSGAEVKKPGASVKVSCKASGYTFTRYGISWVRQAPGQGLEWMGWISAYSGNTNYAQKLQGRVTMTTDTSTSTAYMELRSLRSDDTAVYYCARRQLYFDYWGQGTLVTVSS VL: EIVMTQSPATLSVSPGERVTLSCRASQSVSSNLAWFQQKPGQAPRPLIYDASTRAAGIPARFSGSGSGTDFTLTISSLQSEDFAVYYCQQYDNWPLTFGGGTKVEIK"

# Target: T1, human IL-17RA on cells (human PBMC; …)
# Assay: cell-based or functional assay
# Remark: another data set of the same source
"% Inhib. of IL-5 production (TSLP treated human PBMC + IL-2 + IL-25), Expt. 1","% Inhib. of IL-5 production (TSLP treated human PBMC + IL-2 + IL-25), Expt. 2","% Inhib. of IL-5 production (TSLP treated human PBMC + IL-2 + IL-25), Expt. 3",Binder
0%,6%,0%,"2.46.1 (antibody, V domains shown) VH: QVQLVQSGAEVKKPGASVKVSCKASGNTFTGYGISWVRQAPGQGLEWMGWISAYNGNTNYAQNLQGRVTMTTDTSTSTAYMELRSLRSDDTAVYYCARRDYDILTGYYNGFDPWGQGTLVTVSS VL: DIQMTQSPSSLSASVGDRVTITCRASQGIRNDLGWYQQKPGKAPKRLIYAASSLQSGVPSRFSGSGSGTEFTLTISSLQPEDFATYYCLQHKSYPLTFGGGTKVEIK"
0%,79%,0%,"2.98.1 (antibody, V domains shown) VH: QVQLVQSGAEVKKPGASVKVSCKASGYTLTRYGISWVRQAPGQGLEWMGWISAYNGNTNYAQKLQGRVTMTTDTSTSTAYMELRSLRSDDTAVYYCARRDYDILTGYYNGFDPWGQGTLVTVSS VL: DIQMTQSPSSLSASVGDRVTITCRASQGIRNDLGWYQQKPGKAPKRLIYAASSLQSGVPSRFSGSGSGTEFTLTISSLQPEDFATYYCLQHKSYPLTFGGGTKVEIK"
0%,13%,3%,"2.67.1 (antibody, V domains shown) VH: QVQLVQSGAEVKKPGASVKVSCKASGYTLTRYGISWVRQAPGQGLEWMGWISAYNGNTNYAQKLQGRVTMTTDTSTSTAYMELRSLRSDDTAVYYCARRDYDILTGYYNGFDPWGQGTLVTVSS VL: DIQMTQSPSSLSASVGDRVTITCRASQGIRNDLGWYQQKPGKAPKRLIYAASSLQSGVPSRFSGSGSGTEFTLTISSLQPEDFATYYCLQHKSYPLTFGGGTKVEIK"
0%,,0%,"2.225.1 (antibody, V domains shown) VH: QVQLVQSGVEVKKPGASVKVSCKASGYTLTRYGISWVRQAPGQGLEWMGWISAYNGNTNYAQKLQGRVTMTTDTSTSTAYMELRSLRSDDTAVYYCARRDYDILTGYYNGFDPWGQGTLVTVSS VL: DIQMTQSPSSLSASVGDRVTITCRASQGIRNDLGWYQQKPGKAPKRLIYAASSLQSGVPSRFSGSGSGTEFTLTISSLQPEDFATYYCLQHKSYPLTFGGGTKVEIK"
0%,16%,28%,"2.133.1 (antibody, V domains shown) VH: QVQLQESGPGLVKPSETLSLTCTVSGGSISNYYWNWIRQSPGKGLEWIGDIYYSGSTNYNPSLKSRVTISVDTSKNQFSLKLSSVTTADTAVYYCARDGELANYYGSGSYQFYYYYGMDVWGQGTTVTVSS VL: DILMTQSPSSLSASVGDRVTITCRASQGIRNDLGWYQQKPGKAPKRLIYAASSLQSGVPSRFSGSGSGTEFTLTISSLQPEDFATYYCLQHNSNPFTFGPGTKVDIK"
,77%,100%,"4.16.1 (antibody, IgG2, V domains shown) VH: QVQLVQSGAEVKKPGASVKVSCKASGYTLTSYGISWVRQAPGQGLEWMGWISAYSGNTKYAQKFQGRVTMTTDTSTSTAYMELRSLRSDDTAVYYCARRQLALDYWGQGTLVTVSS VL: EIVMTQSPATLSVSPGERATLSCRASQSISSNLAWYQQKPGQAPRLLIYGASTRATGIPARFSDNGSGTEFTLTISSLQSEDFAVYFCQQYDTWPLTFGGGTKVEIK"
69%,82%,74%,"3.381.1 (antibody, IgG2, V domains shown) VH: QVQLVQSGAEVKKPGASVKVSCKASGYTFTRYGISWVRQAPGQGLEWMGWISAYSGNTNYAQKLQGRVTMTTDTSTSTAYMELRSLRSDDTAVYYCARRQLYFDYWGQGTLVTVSS VL: EIVMTQSPATLSVSPGERVTLSCRASQSVSSNLAWFQQKPGQAPRPLIYDASTRAAGIPARFSGSGSGTDFTLTISSLQSEDFAVYYCQQYDNWPLTFGGGTKVEIK"
28%,72%,45%,"4.393.1 (antibody, V domains shown) VH: QVQLVQSGAEVKKPGASVKVSCKASGYTFTSYGISWVRQAPGQGLEWMGWISAYNGNTKYAQKLQGRVTMTTDTSTSTVYMELRSLRSDDTAVYYCARKQLVFDYWGQGTLVTVSS VL: EIVMTQSPATLSVSPGERATLSCRASQSISTSLAWYQQKPGQAPRLLIYGTSTRATGIPARFSGSGSGTEFTLTISSLQSEDFAVYFCQQYDIWPLTFGGGTKVEIK"
0%,,11%,"4.357.1 (antibody, V domains shown) VH: QVQLVQSGAEVKKPGASVKVSCKASGYTLTSYGISWVRQAPGQGLEWMGWISTYKGNTNYAQKLQGRVTMTTDTSTSTAYMELRSLRSDDTAVYYCARKQLVFDYWGQGTLVTVSS VL: EIVMTQSPATLSVSPGERATLSCRASQSISSSLAWYQQKPGQAPRLLIYGASTRATGIPARFSGSGSGTEFTLTISSLQSENFAVYYCQQYDNWPLTFGGGTKVEIK"
,,69%,"3.1404.1 (antibody, IgG2, V domains shown) VH: QVQLVQSGAEVKKPGASVKVSCKASGYTFTRYGISWVRQAPGQGLEWMGWISTYSGNTNYAQKLQGRVTMTTDTSTSTAYMELRSLRSDDTAVYYCARRQLYFDYWGQGTLVTVSS VL: EIVMTQSPATLSVSPGERATLSCRASQSVSSNLAWFQQKPGQAPRPLIYDASTRATGVPARFSGSGSGTDFTLTISSLQSEDFAVYYCQQYDNWPLTFGGGTKVEIK"
0%,41%,9%,"1.185.1 (antibody, V domains shown) VH: QVQLVESGGGVVQPGRSLRLSCAASGINFSSYGMHWVRQAPGKGLEWVAVIWYDGSNKHYADSVKGRFTISRDNSKNTLYLQMNSLRAEDTAVYYCARDTGVYWGQGTLVTVSS VL: not shown"
0%,43%,0%,"3.1545.1 (antibody, V domains shown) VH: EVQLVESGGGSVQPGGSLRLSCAASGFTFSSYSMNWVRQAPGKGLEWVSIISSRSSIIHYADSVKGRFTISRDNAKNSLYLQMNSLRDEDTAVYYCARPKVGGGMDVWGQGTTVTVSS VL: DIQMTQSPSSLSASVGDRVTITCRASQGISNYLAWYQQKPGKFPELLIYAASTLQSGVPSRFSGSGSGTDFTLTISSLQPEDVATYYCQKYNRAPFTFGPGTKVDIK"
0%,,0%,"2.23.1 (antibody, V domains shown) VH: QVQLVESGGGLVKPGGSLRLSCAASGFTFSDYYMSWIRQAPGKGLEWVSYISSSGSTIYYADSVKGRFTISRDNAKNSLYLQMNSLRAEDTAVYYCARDRTYYFGSGSYEGMDVWGQGTTVTVSS VL: EILMTQSPATLSVSPGERATLSCRASQSVYSNLAWYQQKPGQAPRLLISGASTRATGIPARFSGSGSGTEFTLTISSLQSEDFAVYYCQQYYNWPWTFGQGTKVEIK"

# Target: T2, IL-17RA.HIS (extracellular domain of human IL-17RA fused to a polyhistidine tag) (human, UniProt Q96F46 33-320)
# T2 construct: extracellular domain
# Assay: co-immunoprecipitation on Protein G beads, Western blot with anti-IL-17RA
row,binding result,Binder
1,binds,"IL-17RB.Fc (extracellular domain of human IL-17RB fused to the Fc region of human IgG) (Fc fusion, UniProt Q9NRM6 18-292, looked up, not shown: a dimerising Fc or GST, extracellular domain; also called HuIL-17RB: Fc) REPTVQCGSETGPSPEWMLQHDLIPGDLRDLRVEPVTTSVATGDYSILMNVSWVLRADASIRLLKATKICVTGKSNFQSYSCVRCNYTEAFQTQTRPSGGKWTFSYIGFPVELNTVYFIGAHNIPNANMNEDGPSMSVNFTSPGCLDHIMKYKKKCVKAGSLWDPNITACKKNEETVEVNFTTTPLGNRYMALIQHSTIIGFSQVFEPHQKKQTRASVVIPVTGDSEGATVQLTPYFPTCGSDCIRHKGTVVLCPQTGVPFPLDNNKSKPGGWLP"
